Test results: the nanobody polyreactivity screen of Harvey et al. (2022)

Experiment: yeast display, Sf9 membrane polyspecificity reagent, FACS + sequencing; frameworks hold sequencing errors
Method in brief: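 Synthetic nanobody libraries on Saccharomyces cerevisiae BJ5465 were galactose-induced for 36–48 hours, stained 1 hour at 4 °C with 10% biotinylated, detergent-solubilized Sf9 membrane reagent and enriched on streptavidin microbeads. FACS then separated cells into low and high (top ~1%) gates by anti-HA (expression) and streptavidin (reagent binding) fluorescence. Genes were colony-PCR amplified, MiSeq 2 × 250 sequenced and CDR-length filtered. A clone's polyreactivity label is that of its gate of origin.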

Sequence	polyreactivity (PSR sort gate)
QVQLEESGGGLVQAGGSLRLSCAASGSIFRKYAMVSYRQAPGKERELVAAIRSSGGSTYYADSVKGRFTISRDNANNTVYLQMNSLKPEDTAVYYCAARYYRPSRYDYWGQGTQVTVSS	high polyreactivity
QVQLVESGGGLVQAGGSLRLSCAASGRTFGGYAMGWYRQAPGKERELVAAISKRSGSTYYADSVKGRFTISRDNAKNTVYLQMNSLKPEDTAVYYCNKVWFQRSVQPVEYDYWGQGTQVTVSS	high polyreactivity
QVQLVESGGGLVQAGGSLRLSCAATGRIFHSNAMGWYRQAPGKERELVAVITKNGGSTYYADSVKGRFTISRDNAKNTVYLQMNSLKPEDTAVYYCNKRAQYTYYGRDYWGQGTQVTVSS	high polyreactivity
QVQLVESGGGLVQAGGSLRISCAASGRIFSEYAMGWYRQAPGKERELVATITWTGGSTTYADSVKGRFTISRDNAKNTVYLQINSLKPEDTAVYYCAADATRLRTRYKRDYWGQGTQVTVSS	high polyreactivity
QLQLVESGRGLVQAGGSLRLRCAASVSTFGANAMGWYRQAPGKESELVATISSGGRTYYADSVKGRFTISRDNAKNTVYLQMNSLKPEDTAVYYCNAGADYTYVYISVYVLYDEWGQGTQVTVSS	low polyreactivity
QVQLVESGGGLVQAGGSLRLSCAASGRTSNFNAMGWYRQAPGKERELVAAINSDGSTYYADSVKGRFTISRDNAKNTVYLQMNSLKPEDTAVYYCAAVSLFRDSQFDYWGQGTQVTVSS	low polyreactivity
QVQLVESGGGLVQAGGSLRLSCAASGSTFIANAMGWYSQAPGKERELVAGITRGGSTYYADSVKGRFTISRDNAKHTVYLQMNSLNPEDTAVYYCATDLRSYYYQWTYYHWGQATQVTVSS	low polyreactivity
QVQLVESGGGLVQAGGRLRLSCAASGRIFVRYVMGWYRQAPGQERALVAAISSSGGSTYYADSVKGRYTISRDTAKKTVYLQMNSLKPEDTAVYYCATDLIDKYFLPYDYWGQGTQVTVSS	low polyreactivity
QVQLVESGGGLVQAGGSLRLSCAGSGNIFVFYVMGWYRQAAGKERELVASISSTGNTYYADSVKGRFTISRDNAKNTVYLQMNSLKPEDTAVYYGAADSHQNVSGWLRWPRMDYWGQGTQVTVSS	low polyreactivity
QVQLQESAGGLVQAGGSLRLRCSASGYISCDASKGWYRQAPGKERELAASITKGSSTNYADSVKGRFTIRDNAKNSVNLQMNSLKPEDTAVCYCAVTYPYWGDYTYWGQGTQVTVSS	low polyreactivity
QVQLVESGGGLVQAGGSLRISCAASGIIFAANTMGWYRQAPGKERELVAAITSGGSTKYADSVKGRFTISRDNAKNTVYLQMNSLKPEDTAVYYCAAQYRYQRYSYAMEYWGQGTQVTVSS	high polyreactivity
QVQLVESGGGLVQAGGSLRLSCAASGSTFYYYAMGCYRQAPGKERELVAAINSSGGNTYYADSVKGRFTISRDNAKNTVYLQMNCLKPEDTAVYYCATEYYWLQDYDYWGQGTQVTVSS	low polyreactivity
QVHLVESGGGLVQAGGSLRLSSAASGSIFQVYAMGWYRQAPGTERELVAGISRGGSTYYADSVKGRFTISRDNAKNTVYLQMNSLKPEDTAVYYCAARGGGIRAYGSNRRSFYYWGQGTQVTVSS	high polyreactivity
QVQLVESGGGLVQAGGSLRLSSAASGLTFHRYAMGWYRQAPGKERELVAGISWSGASTYFADSVKGRFTISRDNAKNTVYLQMNSLKPEDTAVYYCAAVVPGLAYYRHGYWGQGTQVTVSS	high polyreactivity
QVQLVESGGGLVQAGGSLRLSCAASGFIFTPYAMGWYRQAPGKERELVAAIRSGTSTNYADSVKGRFTISRDNAKNTVYLQMNSLKPEDTAVYYCAAEEGLIDGRAWYGYWGQGTQVTVSS	low polyreactivity
QVQLVESGGGLVQAGGSLRLSCAASGRTFDGNAMGWYRQAPGKERELVAAISKRGGTTYYADSVKGRFTISRDKAKNTVYLQMTSLKPEDTAVYYCAAPYNTYSYSEGEYWGQGTQVTVST	low polyreactivity
QVQLVESGGGLVQAGGSLRLSCAASGSTFPVNAKGWYRPAPGKERQLVATIRWTGGGTYYADSVKGRFTISRDNAKNTVYLQMNSLKPEDTAVYYCAADPPWEWSDYGYDYWGQGTQVTVSS	low polyreactivity
QVQLVESGGGLVQAGGSLRLSCAASGLTFGDYVMGWYRPAPGKERELVATITSDGGTTYADSVKGRFTISRDNAKNTVYLQMNSLKPEDTAVYYCNADAVVDNYVGFSAAGYDYWGQGTQVTVSS	low polyreactivity
QVQLVESGGGLVQAGGSLRLSCAASGSIFNGYAMGWYRQAPGKERELVATITRGGGSTYYADSVKGRFTISRDNAKNTVYLQMNSLKPEDTAVYYCAKTYFYGVRRFNYWGQGTQVTVSS	high polyreactivity
QVQLVESGGGLVQAGGSLRLSCAASGSTFSYYAMGWYRKAPGKERELVAAITIGGRTNYADSVKGRFTISRDNAKNTVYFQMNSLKPEDTAVYYCAASRVRSLRSYVWDLLLMDSWGQGTQVTVSS	high polyreactivity
QVQLVESGGGLVQAGGSHRLSCAASGSIFYQYAMGSYRQAPGKERELVAAITWIGSTYYADSVKGRFTISRDNAKNTVYLQMNSLKPEDTAVYYCNTDPYVLQKYDYWGQGTQVTVSS	low polyreactivity
QVQLVESGGGLVQAGGSVRLSCAASGFTFWRYAMGWYRQAPGKEREFVAAITRSGVSTSNADSVKGRFTISRDNAKNTVYLQMNSLKPEDTAVYYCAALFYTSVPYPDYDYWGQGTQVTVSS	high polyreactivity

Sequence	polyreactivity (PSR sort gate)
QVQLVESGGGLVQAGGSLRLSCAASGSIFRSYALGWYRQSPGKERELVASISRRGGSTYYADSVKGRFTISRDNAKNTVYLQMNSLKPEDTAVYYCAAVRYNSRVSTTPSEMYYWGQGTQVTVSS	low polyreactivity
QVQLVESGGGLVQAGGSLRLSCAASGGIFVANAMGWYRQAPGKERELVAAISRSGGSTYYADSVKGRFTISRDNAKNTVYLQMKSLKPEDTAVYYCAAKSRRQFTVGLTSDYRGQGTQVTVSS	high polyreactivity
QVQLVESGGGLVQAGGSLRLSCAASGRTFPPYAMGWYRQAPGKERELVAAISRRAGTTYYADSVKGRFTISRDNAKNTVYLQMNSLKPEDTAVYYCAASDHYRWYVHRWEDPFYYWGQGTQVTVSS	low polyreactivity
QVQLVESGGGLVQAGGSLRLSCAASGSIFDPYAMGWYRQAPGKERELVAAITSDGSTNYADSVKGRFTISRDNAKNTVYLQMNSLKPEDTAVYYCAARYNLGEYDYWGQGTQVTVSS	low polyreactivity
QVQLVESGGGLVQAGGSLRLSCAASGRIFEIYAMGWYRQAPGKERELVAAITDSGGSTYYAYSVKGRFTISRDNAKNTVYLQINSLKPEDTAVYYCAAVGYSYETWLFYYWGQGTQVTVSS	low polyreactivity
QVQLVESGGGLVQAGGSLRLSCAASGSTFGVYAMGWYRQAPGKERELVASISSRGRTKYADSVKGSFTISRDNAKNTVYLQMIRLKPEDTAFYYCAARIRYLGVRDNDNYYWGQGTQVTVSS	low polyreactivity
QVQLVESGGGLVQAGGSLRLSCAASGRIFVKYSMGWYRQAPGKERELVAAISKSGGSTYYADSVKGRFTISRDNAKNTVYLQMNSLKPEDTAVYYCATRSRDQYSVSYRLDYWGQGTQVTVSS	low polyreactivity
QVQLVVSGGGLVQPGGSLRLSCAASGRIFGLYAMGWYRQAPGKEREVVAAYADSVKGRFTISRDNAKNTVYLQMNSLKPEDTAVYYCAKGPLYAGYSIDLRDFNYWGQGTQVTVSS	low polyreactivity
QVQLVESGGGLVQAGGSLRLSCAASGFTFGIYAMGWYRPATVKERELVAAISSSGGSTYYADSVKGRFTISRDNAKHTVYLQMNSLKPEDTAVYYCNAGALYRVYPYRGKLAYITYDSWGQGTQVTVSS	high polyreactivity
QVQLVESGGGLVQAGCSLRLSCAASGFTFGRNAMGWYRQAPGKEREFVADISGSVGSTYYADSVKGRFTISRDNAKNTVYLQMNSLKPEDTAVYYCAADTLYPRWEFDYWGQGTQVTVSS	high polyreactivity
QVQHVESGGGLVQAGGSLRLSCAASGRTFAQYTMGWYRQAPGKERELVAGIDWSGGNTYYADSVKGRFTISRDNAKNTVYLQMNSLKPVDTAVYYCAAVPAFYNAWGEDYEYWGQGTQVTVSS	low polyreactivity
QVQLVESGGGLVQAGGSLRLSCAASGSIFEEYAMGWYRQAPGKERELVARIDESGGSTYYADSVKGRFTISRDNAKNTVYLQMHSLKPEDSAVYYCAAVVTAQAYAYFTYGYDYWGQGTQVTVSS	low polyreactivity
QVQLVESGGGLVQAGGSLRLSCAASGSIFSYYAMGWYRQAPGKERELVAAISWNGGRTYYADSVKGRFTISRDNAMNTVFLQMNSLKPEDTAVYYCNAVKVYSYGLYGYWGQGTQVTVSS	high polyreactivity
QVKLVESGGGLVQAGGSLRLSCAASGSIFWYNAMGWYRQAPGKERELVAAIRWRGGSTYYADSVNGRFTISRDNAKNTVYLQMNSLKPEDTAVYYCAAQVYVSQMYTSYYYWGQGTQVTVSS	high polyreactivity
QVQLVESGGGLVQAGGSLRLSCAASGFTFPSYPMGWYRQAPGKETELVAVISWGGTSTYYADSVKGRFTISRDNAKNTVYLQMNSLKPEDTAVYYCNRPSRYASTSRGYGYWGQGTQVTVSS	high polyreactivity
QVQLEESGGGIVQAGGSLRLSCAASGRIFPYYAMGWYRQAPGKERALVAVISYSSGITYADSVKGRFTISRDNAKNTVYLQMNSLKPEDTAVYYCAADKWAFGATQYDYWGKGTQVTVSS	low polyreactivity
QVKLVESGGGLVQAGGSLRLSCAASGFTVYGYSMGWYRQEPGKERELVAAITSVGDTNYADSVKGRFTISRDNAKNNVYLQINSLKPEDTAVYYCKADPVYYFYWWTGDYWGQGTQETVSS	low polyreactivity
QVQLVESGGGLVQAGGSLRLSCAASGRTFHSNAMGWYRKAPGKERELVAAIRFGGGSTYYADSVKGRFTISRDNAKNTVYLQMNSLKPEDTAVYYCNASPLWIGWEIVPVGSSHYDYWGQGTQVTVSS	low polyreactivity
QVQLVESGGGLVQAGGSLRLSCAASGSIFRGKAMGWSRQAPGKERELVAGINRAGSTKYADSVKGRFTISRDNAKNTVYLQMNSLKPEDTAVYYCAAVRYERGLWSDYWGLGTQVTVSS	high polyreactivity
QVQLVESGGGLVQAGGSLRLSCAASGSTFSYNAMVWYRQAPRKERELVAAISRRGDNTYYADSVKGRFTISRDNAKNTVYLQMYSLKPEDTAVYYCAAVGYFVKQYAPRYGYWGHGTQVTVSS	low polyreactivity
QVQLVESGGGLVQAGGSLRLICAASGLTFAGYAMGWYRQAPGKERELVAAITYSTGRTYYADSVKGRFTISRDNAKNTVYLQMNSLKPEDTAVYYCAALLRGQDRTMDYWGQGTQVTVSS	high polyreactivity
